Laboratory results from the DeepSol protein solubility set.

assay: soluble on expression in E. coli; label from the status in PepcDB or PDB records

Row | Sequence | soluble on expression in E. coli
1 | MSDKNIQDRAAGAIMGAFIGDALGLGPHWYYDLSELRRDYDDWITGYTDPKPDRYHAGLKAGQLSQSGFILKLMVRSLVGCGGYDTEDFCHRMDEELFPLLDGTPVNGPGGYTSQSIRETWRRRVQQMLPWGQTGGHADTTEAVERTLAIAVRYAYQPEQLAAAVSANTTLTQTDETIVSMTVAYGAVLGLLIQGHALDTGLSGKLMDLVKSGALPFHAVTGDDLQPPRPGDPDPPRAGRFASPDALLTPSYMAAAAVDPEIRIEPAWKVSIVYGMPCAIYHQLPAAYYLAARFRDDFKSAVLHAVNGGGQNQARAMLTGALAGAQTGLSGIPQYLLDGLDNSAVLGKLAVELAASVNPIMAGDPNSLEHHHHHH | not soluble
2 | MGSDKIHHHHHHMMFESHSQIISAAEELLTKRYGGSQSLTDWDRLAGSGAAVVLRARVASSPFFPNRSVVVKYIPPTGRLIDESTLMREVVSYQFTTSLNADVRPGPVLLAYDVEQHLLVISDSGDGDTFAELLERHENDVRIGILRNLGEAIGKLHVGTAAKEQDFNILLHRMLVKHPEVQPMHGFRERLLRLNIGVGITLVEQAGITVPDVVKSFAQEAMRRLVTGQHRAFTPFDLSPDNIIVADRTEFLDYEWAGFRDAAFDVASVIAGFPQYLFARPVSDAEADIFIESWVQQVGDMWPNVRNTPRLHARILTALIGWAFSSVTMMYLGSSSEAYEELFHKIGTEKATAFDVEEIVKEIAATGDILLGTFVPETSEDADLVALLRQDLYETFEALNRFAQRESDTRFPVVADFAQAVVDLLTDDESTE | not soluble
3 | GPLGSKAPTVFSQNEASLLNQLKNIANREDYVVTWWDYGYPVRYYSDVKTLVDGGKHLGKDNFFPSFALSKDEQAAANMARLSVEYTEKSFYAPQNDILKSDILQAMMKDYNQSNVDLFLASLSKPDFKIDTPKTRDIYLYMPARMSLIFSTVASFSFINLDTGVLDKPFTFSTAYPLDVKNGEIYLSNGVVLSDDFRSFKIGDNVVSVNSIVEINSIKQGEYKITPIDDKAQFYIFYLKDSAIPYAQFILMDKTMFNSAYVQMFFLGNYDKNLFDLVINSRDAKVFKLKI | soluble
4 | GAMEPKASCPAAAPLMERKFHVLVGVTGSVAALKLPLLVSKLLDIPGLEVAVVTTERAKHFYSPQDIPVTLYSDADEWEMWKSRSDPVLHIDLRRWADLLLVAPLDANTLGKVASGICDNLLTCVMRAWDRSKPLLFCPAMNTAMWEHPITAQQVDQLKAFGYVEIPCVAKKLVCGDEGLGAMAEVGTIVDKVKEVLFQHSGFQQS | soluble
5 | MGSDKIHHHHHHMKNVVTDPEKVTRILKTATEIFGQQGFIKSKTDQIANQAQVSKGLLFHYFGNKQALYLDAFKYAYHRIYDHMDPKKWQNAPGLAAMMTTAVKYELKLQFKFPAEYRLMMQAYADLPHFPEPLRQQVQQETTAISAEADRIFREKIEQLPRREGLSVDDVFGVVSALIAQQTAVTTRLIASGHYRKFEDLQSVVETMARQLLIVEHGFLPDES | not soluble
6 | MCPRTSCRFYPFTIDFGTFRMAIIHAKSMTIPTSKLVAFSDKFLQNLRCFNCAVMDIVKNDATLPLGHLEEYTPGNRIGNWIGPVKGINIPSHLKADFRKSQPLSITRSVREAEWCTPFINCTQYYICINHLFAERIATKLRQVMGHTMISNCVSLLYLTGDFRRSSRFSGPIESANITSNLEEHCWHSIVLDFFDFICINSMRAIIEGKYQCFRRFITKYLMFAFFNWYRISFENSIIMQNHFTCVRTTQMRHVVIPLFTLNKDSSITIKRNRPSNFLIVVALNLICLEHHHHHH | not soluble
7 | MGYRNTGSPPPPQIGGLYGDRNPNPYGTVNLGGGSPYPGGLEEYNIRPAAPFSGLVGGSRSGYYGSTVGMRRGAVVPPMSSRKTKIPQTEYPPDYASNDLMNSFNGATNSAIPSLRELATYASRYGPAYLRERFGSHDSQLERMLYGGSGPQIPSRGGGIPIDYNMNIASNHWNRGIGSPMGIMSRDVDSYQHDDAAKANKKTTTGSPSTTSTRKPRKARKPTKKTVAAAPSSSSNTSTTAKPAKTVKTSEKSA | not soluble
8 | MPTSNTAFLIQNLPASRTAPHYRAGLDPVKGGLALQRSGGRVYISLLMGKRGFLRREASPKEVLEHCLRLAREVAPPTPKGKRGRPWRYSHALYLALLLFRAFFHLTYRETEASLQDLMEGPFPSHQSLARYALKHLDPKLLEALLERLSRELEAHLAPESSPEGEAASDEAPAHLAALSPP | soluble
9 | MGSDKIHHHHHHMNREFYGKIIISGEIEAVTGLHIGSQREVSEIGGIDNPVIKDPHTGLPYIPGSSLKGRLRSLFEIYVNTRLDELKSKYSSLSNYSKGSCRDVGKENCGKFFNKKLNNVWIHVCSTYEMARNCPVCRLYGSSGKESNFPSRLIVRDAFLTEEWKKKWENGEAITEAKIEVGIDRVTSQANPRTTERVVAGTRFDFEIIYTIEDLKEWKDDLRNLLTSMLLLEDSYLGGSGSRGYGKVRFHVKGLELRPLEYYRTGDEGKIVKKTEYERVEDLLKNFETITSEFDRRVGGIEG | not soluble
10 | MSLDKNSKSFGEANERIGNAIHHVCLNASDAKFIKSNIQESYQSWANVLYDRVFLNWGLCDKKIYRELSSLNFDFSTVGFFPHVYGQSLLFYLIRPLIKIHFFNKRLLDVGCGNGVGLKISSELLKTRYALGIDLVSKLVTNSNNSFYIEDKINYMQADAENMAIANESFDIVTNLESSHLYPQIEHFFSEVERVLAPNGFFCYADVHFDVKQQAQRLEAFVKTKKNLRIIEKHNITKMVQASIYQRLIVNEKGFYQLAQYLLGPDKIHYTSELANVASSMGLMFLPWWRIRFKNPALQALGKFARRCKHWNKKYYFYYLIQKIDSEGHHHHHH | not soluble
11 | MIPKNIHLIFLRKDEPFPELFEKCKQEIQVNHPDWNIRLYNKDDAQDILNQDLPEYIEAYNAFYHNVQKADFLRLALVYLYGGFYMDLDMLSLKPLDELRKYNLVLGEEKIVCQAEQEALNLRYRLRIANYMFGGIPKHPFLHRIMDEMAERATIILKSQQEILDITGPGLLTDTYWDNYGMYTDITLLRNTDKRCRQPYHNEISCHFGDYAAHLHAGTWRTGILEHHHHHH | soluble
12 | MGSDKIHHHHHHMHLGVVVPRVDDHSTIELAVEAEGHGYDSVWLNELWGASSVVELTDIATRTDDIEIGSAILNVFSRSPAVLAMTATTLDRVSDGRAVLGLGTSTARSIENMHSMEFERPVRRAHETIDIIKQLMTGDERVTYDGEAVSVRGVPPLDRDVPVYHAALGPANRRVVARLADGWLPHMIAFSELESAFDYIAETARDADRDPDDITVAPYVPAVVHEDSERATEELRQHIAYYVGSGEGYRRAVAETYPDRAERIADAWQAGDRGEATELVTDEMTADLGIAGTPEQAREKRDKIADRAVIDRLLLTVPQQVDGELARKTIRALGPN | not soluble
13 | MSLARDYRWEGVPLKAYKTDGTHFRAITRQTLLGADEDERALGHQTRYFEIAPGGYSSLERHQHTHTVMILRGQGELILGDALHRIGRHDCIYIAPQTFHQFHASGDEPLGFLCIVDRERDRPRLPDDDELARMRALPGVGPKVRTEGHHHHHH | soluble
14 | MGSDKIHHHHHHMALRLRKENDLWVQTFKAAGQSHLHRVEEEVFLGKCDQEPDLNLELYKDNKAVTDLITQALGSEVEKLSLQFETDVQRTYHVFEADDTAIEVCLDDGAVKTATAQSKICEVEFELKQGAVKTLIQFAQQWINRYELWLDVRSKAERGNLLALGQAASPAVHAKNLNLDKNISAEQALKKIVENCLGQFLPNMAAIADGVAEAEHIHQARVSLRRLRSALKHFSAWSDELNPVWEEQIAELFRQLGDTRDEDAIRTEILPMIVQHGSPELLLPISEQPLKDLATLFKSADTIKLILALLAFAYSEEDNQNGKGKLKKQIGKSLDKLHHQVVSNADHFTELEVTEQHRTRKKAKQLRYCIEFISSLYPRKNIQQFLKQLQPVQNTLGLYNDLFIAEDLFNKAIEHDPHFWFALGWVKAKQPYLQNQSAEALQKFKQAKTFW | not soluble
15 | MTNGIFKHSNQSILEDQDHVKKSTVEILMPAYVIGGPIRSIRVDKDRLFVLGMKNHPEVIDLTQMSHGTSLILEKIMSGNRYYTTQISMNQAAELCHVAHELKLVNLLKLVEMDMIRRPSTSMKHAVDALVLALKFGMLEAVNKLIDEIIFEFFNGLGLVGYCKSSTALEMIFDKNEMMLKEEIEVGRLNSEWNEPLPVGQEVVPSLPRGNNAQIPRIMLNVAKERIRSLVARPINSVKNGFAWISAQNLRRRGPRNHQDFPNFPD | not soluble
16 | MTTYDRNRNAITTGSRVMVSGTGHTGKILSIDTEGLTAEQIRRGKTVVVEGCEEKLAPLDLIRLGMN | soluble
17 | MGSDKIHHHHHHMTTQSFIATKEHRRFAEFADAVRRQHTIGICYGHAGIGKTLSAKRYANWHKAENLIEQWGPRDDADYQIYAALARARTVFYTPAVLTSPKQIHAELEHISTRVSICVDQHLEKIGKKTGPHTRTGKHVELLIIDESERLNATALELLRDRYDRDNIALILIGMPGIEKWFSRYAQLYSRVGFAHEYRPLAQEELNFVLERRWHKLGQTLDPEDFTDAQAIAAVARITRGNFRLIDRLFTQIERVMKINELSTITDDVIEAARSTLVIGIS | not soluble
18 | SPLHWLQWERGGVGSDQDLGCHWLPLPTGSDGGDAVEYNPNLLDDPQWPCGKHKRVLIFASYMTTVIEYVKPADLKKDMNETFREKFPHIKLTLSKIRSLKREMRNLSEECSLEPVTVSMAYVYFEKLVLQGKLNKQNRKLCAGACVLLAAKISSDLRKSEVKQLIDKLEERFRFNRKDLIGFEFTVLVALELALYLPENQVLPHYRRLTQQF | not soluble
19 | MILFDYKLLAALAAVVEQGGFERAAQALGLSQSAVSQRIKLLEARVGQPVLVRETPPHPTDLGRRLLNHVQQVRLLEGDLQRWVPNLDEGGAPERLRIALNADSLATWWAAAVGDFCAERRVLLDLVVEDQEVGLKRMRAGEVAGCVCGSARPVAGARSLLLGAMRYRGLASPDFIARHFPRGVEAAALAGVPAIVFGPDDLLQHRFLKDLGVEGGFIHHLCPSSEGFVRLTAGGLGWGLVPERQVQGELARGELVELLPGQVIDVPLYWHYWRNGGELLASLTEHLLARAGDGLVRVSG | not soluble
20 | MTKYRLHYFNARGYAEASRAMFHMAGVEFEDVRYEIDDWIKEENTLKNEMPFGQMPVLEVDGEKIPQSVAIARFVANQLGFAGQTPVEKAWADAFTDLYKDFLIDMKPWAMIAFGYPGAAGDRDELKKTSLDPAKEKYFKLLSKRLEKSKSGFLLDSGISFPDLFFFETTTSLIELEKGFLGTDFPVVNAYFKRIAEHPKLKPYLETRPYSSK | not soluble
